The values below come from patent publication US20190077860A1 (EISAI R AND D MANAGEMENT, published 2019).

What is called IC50 is the concentration that gives 50% inhibition. Broadly, the Kd is a measure of binding affinity in units of concentration. A higher Kd goes with weaker binding. In general, koff refers to the first-order rate constant of dissociation. Lower therefore signals slow dissociation. In general, kon refers to a measure of how fast the partners come together.

Positions count from the first letter of the chain named.

B1: humanized antibody No. 154 (antibody, human IgG2)
heavy: QVQLVQSGSELKKPGASVKVSCKASGYTFTDYSMHWVRQAPGQGLEWMGWINTETGEPTYADDFKGRFVFSLDTSVSTAYLQISSLKAEDTAVYYCARIPLYYYGSRYWYFDVWGQGTTVTVSSASTKGPSVFPLAPSSRSTSESTAALGCLVKDYFPEPVTVSWNSGALTSGVHTFPAVLQSSGLYSLSSVVTVPSSNFGTQTYTCNVDHKPSNTKVDKTVERKSCVECPPCPAPPAAAPSVFLFPPKPKDTLMISRTPEVTCVVVDVSHEDPEVQFNWYVDGVEVHNAKTKPREEQFNSTFRVVSVLTVVHQDWLNGKEYKCKVSNKGLPAPIEKTISKTKGQPREPQVYTLPPSREEMTKNQVSLTCLVKGFYPSDIAVEWESNGQPENNYKTTPPMLDSDGSFFLYSKLTVDKSRWQQGNVFSCSVMHEALHNHYTQKSLSLSPG
light: DIQMTQSPSSLSASVGDRVTITCRASENIYRNLAWYQQKPGKAPKLLLYAATNLADGVPSRFSGSGSGTDYTLTISSLQSEDFATYYCQHFWGTPWTFGQGTKVEIKRTVAAPSVFIFPPSDEQLKSGTASVVCLLNNFYPREAKVQWKVDNALQSGNSQESVTEQDSKDSTYSLSSTLTLSKADYEKHKVYACEVTHQGLSSPVTKSFNRGEC
notes: human Ig kappa; also called L1-5/HK1
B2: humanized antibody No. 134 (antibody, human IgG2)
heavy: B1 heavy with E46K, D62Q, D63G, K65T
light: EIVMTQSPATLSVSPGERATLSCRASENIYRNLAWYQQKPGQSPRLLIYAATNLADGIPARFSGSGSGTEYTLTISSLQSEDFAVYYCQHFWGTPWTFGQGTKVEIKRTVAAPSVFIFPPSDEQLKSGTASVVCLLNNFYPREAKVQWKVDNALQSGNSQESVTEQDSKDSTYSLSSTLTLSKADYEKHKVYACEVTHQGLSSPVTKSFNRGEC
notes: human Ig kappa; also called L2-4/HA2
B3: humanized antibody No. 136 (antibody, human IgG2)
heavy: B1 heavy with E46K
light: B2 light
notes: human Ig kappa; also called L2-4/HK2
B4: humanized antibody No. 156 (antibody, human IgG2)
heavy: B1 heavy with V2I, E46K, D62Q, D63G, K65T
light: B1 light with K45Q, S80P
notes: human Ig kappa; also called L1-6/HA4
B5: humanized antibody No. 159 (antibody, human IgG2)
heavy: B1 heavy with E46K
light: B1 light with K45Q, S80P
notes: human Ig kappa; also called L1-6/HK2
B6: humanized antibody No. 160 (antibody, human IgG2)
heavy: B1 heavy with V2I, E46K
light: B1 light with K45Q, S80P
notes: human Ig kappa; also called L1-6/HK4
B7: humanized antibody No. 158 (antibody, human IgG2)
heavy: B1 heavy with E46K, D62Q, D63G, K65T
light: B1 light with K45Q, S80P
notes: human Ig kappa; also called L1-6/HA2
B8: humanized antibody No. 135 (antibody, human IgG2)
heavy: B1 heavy
light: B2 light
notes: human Ig kappa; also called L2-4/HK1
B9: humanized antibody No. 157 (antibody, human IgG2)
heavy: B1 heavy with D62Q, D63G, K65T
light: B1 light with K45Q, S80P
notes: human Ig kappa; also called L1-6/HA1
B10: humanized antibody No. 133 (antibody, human IgG2)
heavy: B1 heavy with D62Q, D63G, K65T
light: B2 light
notes: human Ig kappa; also called L2-4/HA1
B11: humanized antibody No. 132 (antibody, human IgG2)
heavy: B1 heavy with V2I, E46K, D62Q, D63G, K65T
light: B2 light
notes: human Ig kappa; also called L2-4/HA4
B12: humanized antibody No. 155 (antibody, human IgG2)
heavy: B1 heavy with V2I, E46K
light: B1 light
notes: human Ig kappa; also called L1-5/HK4
B13: humanized antibody No. 137 (antibody, human IgG2)
heavy: B1 heavy with V2I, E46K
light: B2 light
notes: human Ig kappa; also called L2-4/HK4
B14: humanized antibody No. 94 (antibody, human IgG1, kappa)
heavy: QVQLVQSGSELKKPGASVKVSCKASGYTFTDYSMHWVRQAPGQGLKWMGWINTETGEPTYAQGFTGRFVFSLDTSVSTAYLQISSLKAEDTAVYYCARIPLYYYGSRYWYFDVWGQGTTVTVSSASTKGPSVFPLAPSSKSTSGGTAALGCLVKDYFPEPVTVSWNSGALTSGVHTFPAVLQSSGLYSLSSVVTVPSSSLGTQTYICNVNHKPSNTKVDKRVEPKSCDKTHTCPPCPAPPAAAPSVFLFPPKPKDTLMISRTPEVTCVVVDVSHEDPEVQFNWYVDGVEVHNAKTKPREEQFNSTFRVVSVLTVVHQDWLNGKEYKCKVSNKGLPAPIEKTISKTKGQPREPQVYTLPPSREEMTKNQVSLTCLVKGFYPSDIAVEWESNGQPENNYKTTPPMLDSDGSFFLYSKLTVDKSRWQQGNVFSCSVMHEALHNHYTQKSLSLSPG
light: B2 light
notes: as for B2
B15: humanized antibody No. 95 (antibody, human IgG1, kappa)
heavy: B14 heavy with K46E, Q62D, G63D, T65K
light: B2 light
notes: as for B8
B16: humanized antibody No. 71 (antibody, human IgG1, kappa)
heavy: B14 heavy with V2I
light: B2 light
notes: as for B11
B17: humanized antibody No. 93 (antibody, human IgG1, kappa)
heavy: B14 heavy with K46E
light: B2 light
notes: as for B10
B18: humanized antibody No. 73 (antibody, human IgG1, kappa)
heavy: B14 heavy with V2I, Q62D, G63D, T65K
light: B2 light
notes: as for B13

In the first test the target is T1, human EphA4 extracellular region-SEAP-His protein (human, UniProt P54764 20-547).
T1 construct: also called hEphA4-SEAP-His
T1 sequence (P54764 20-547): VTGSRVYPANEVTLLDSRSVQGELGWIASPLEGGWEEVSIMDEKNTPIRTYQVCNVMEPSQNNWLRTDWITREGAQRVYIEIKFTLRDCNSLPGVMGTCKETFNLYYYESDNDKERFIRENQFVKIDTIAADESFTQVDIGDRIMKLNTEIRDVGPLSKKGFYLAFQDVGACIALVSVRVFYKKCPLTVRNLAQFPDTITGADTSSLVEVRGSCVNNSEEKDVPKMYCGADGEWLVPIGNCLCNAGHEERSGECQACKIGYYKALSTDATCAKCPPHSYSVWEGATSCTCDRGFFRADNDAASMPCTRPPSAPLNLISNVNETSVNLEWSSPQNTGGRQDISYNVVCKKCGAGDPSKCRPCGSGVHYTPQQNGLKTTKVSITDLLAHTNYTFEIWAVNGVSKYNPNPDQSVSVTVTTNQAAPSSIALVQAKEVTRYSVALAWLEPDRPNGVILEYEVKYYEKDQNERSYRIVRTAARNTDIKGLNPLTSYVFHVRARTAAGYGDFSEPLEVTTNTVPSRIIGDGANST
The test can be described thus: competition ELISA, competitor human Ephrin A5-Fc. In a few lines: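 Anti-alkaline phosphatase-coated plates captured EphA4-SEAP-His (10 nM final), then antibody (0–3000 nM serial dilutions) and biotinylated Ephrin A5-Fc (0.7 nM final) were co-added for 1 h at room temperature. Bound ligand detected with HRP-streptavidin and TMBZ, stopped with 1N H₂SO₄, A450 read.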
Regarding B1, the IC50 came out at 2.5 nM.
The same measure, in the same setting: under B2 stands 3 nM.
The same measure, in the same setting: under B3 stands 2.5 nM; under B4, 2.5 nM.
On the same count and under the same terms, under B5 stands 2.6 nM; under B6, 2.2 nM.
B7 had an IC50 of 2.8 nM.
On the same count and under the same terms, for B8 the value was 2.5 nM; for B9, 2.6 nM.
The same measure, in the same setting: under B10 stands 3 nM.
On the same count and under the same terms, for B11 the value was 3.1 nM; for B12, 2.4 nM.
Take B13: the IC50 was 2.5 nM.
On the same count and under the same terms, under B14 stands 2.7 nM.
Regarding B15, the IC50 is 3.1 nM.
The same measure, in the same setting: for B16 the value was 2.5 nM; for B17, 2.5 nM.
Still for that read-out and setting: for B18 the value was 2.4 nM.

Another test deals with T2, human EphB1 extracellular region-SEAP-His protein (human, UniProt P54762 18-540).
T2 construct: extracellular domain; also called hEphB1-SEAP-His
T2 sequence (looked up): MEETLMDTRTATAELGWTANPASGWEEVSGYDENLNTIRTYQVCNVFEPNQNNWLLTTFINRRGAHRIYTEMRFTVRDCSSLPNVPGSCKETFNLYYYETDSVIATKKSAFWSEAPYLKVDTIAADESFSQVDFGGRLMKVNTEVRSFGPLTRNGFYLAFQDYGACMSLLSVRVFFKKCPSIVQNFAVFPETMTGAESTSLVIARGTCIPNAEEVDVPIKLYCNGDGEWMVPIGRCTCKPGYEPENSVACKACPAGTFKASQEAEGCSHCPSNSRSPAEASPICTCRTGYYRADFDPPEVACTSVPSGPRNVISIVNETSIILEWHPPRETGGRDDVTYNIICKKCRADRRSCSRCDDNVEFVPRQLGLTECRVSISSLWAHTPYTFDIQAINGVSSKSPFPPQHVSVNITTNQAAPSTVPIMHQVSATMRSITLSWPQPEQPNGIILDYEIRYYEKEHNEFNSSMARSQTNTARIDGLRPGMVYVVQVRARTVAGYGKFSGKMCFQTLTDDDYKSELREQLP
The test can be described thus: ELISA. Background: In an ELISA, binding on a coated surface is turned into a signal by an enzyme label.
Take B1: the “A450 as % of hEphA4-SEAP-His” value is 6.3%.
Still for that read-out and setting: for B2 the value was 5.1%; for B3, 5.2%; for B4, 5.4%.
On the same count and under the same terms, for B5 the value was 5.3%.
The same measure, in the same setting: under B6 stands 6.1%; under B7, 6.2%.
B8: the “A450 as % of hEphA4-SEAP-His” value was found to be 5.1%.
Same read-out and setting: for B9 the value was 6.1%; for B10, 4.6%.
On to B11, for which the “A450 as % of hEphA4-SEAP-His” value came out at 4.8%.
Still for that read-out and setting: for B12 the value was 5.4%; for B13, 5.8%.
In the case of B14, the “A450 as % of hEphA4-SEAP-His” value stood at 6.7%.
Regarding B15, the “A450 as % of hEphA4-SEAP-His” value worked out at 4.6%.
Same read-out and setting: under B16 stands 5.4%.
Same read-out and setting: for B17 the value was 5%.
On the same count and under the same terms, for B18 the value was 5.7%.

The next test deals with T1, human EphA4 extracellular …. The test can be described thus: SPR, Ab captured. The essentials:
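Antibodies captured (~30–60 RU) on a protein A chip, or for antibody A on immobilized rat anti-mouse IgG1, in HBS-EP. Human EphA4 extracellular region-SEAP-His at 0.6–50 nM injected in ascending order without regeneration, with 120 s association and 900 s dissociation. KD=kd/ka from 1:1 binding model fits.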
B1 yielded a Kd of 2.2 nM, a koff of approximately 0.00085 s⁻¹ and a kon of 390000 M⁻¹ s⁻¹.
The corresponding values for B2 are 1.2 nM, 0.00032 s⁻¹ and 280000 M⁻¹ s⁻¹.
Molecule B3 gave a Kd of 1.4 nM, a koff of 0.00039 s⁻¹ and a kon of 290000 M⁻¹ s⁻¹.
In the same order, the values of B4 are 1.6 nM, 0.00056 s⁻¹ and 310000 M⁻¹ s⁻¹.
The corresponding values for B5 are 2 nM, 0.00061 s⁻¹ and 310000 M⁻¹ s⁻¹.
In the same order, the values of B6 are 1.9 nM, 0.00061 s⁻¹ and 320000 M⁻¹ s⁻¹.
As to B7, the dissociation constant (Kd) came out at 1.9 nM, the koff turned out to be 0.00061 s⁻¹ and the kon amounted to 310000 M⁻¹ s⁻¹.
Consider B8, for which the equilibrium dissociation constant (Kd) worked out at 1.3 nM, the koff amounted to 0.0004 s⁻¹ and the kon was 320000 M⁻¹ s⁻¹.
B9: the Kd turned out to be 2 nM, the off-rate (koff) came out at 0.00068 s⁻¹ and the kon turned out to be 350000 M⁻¹ s⁻¹.
In the same order, the values of B10 are 1.1 nM, 0.00032 s⁻¹ and 300000 M⁻¹ s⁻¹.
Molecule B11 registered a Kd of 1.2 nM, a koff of 0.00031 s⁻¹ and a kon of 270000 M⁻¹ s⁻¹.
The corresponding values for B12 are 1.9 nM, 0.00064 s⁻¹ and 330000 M⁻¹ s⁻¹.
In the same order, the values of B13 are 1.3 nM, 0.00039 s⁻¹ and 290000 M⁻¹ s⁻¹.
In the same order, the values of B14 are 0.95 nM, 0.00024 s⁻¹ and 260000 M⁻¹ s⁻¹.
Take B15: binding was characterised by a dissociation constant (Kd) of 1 nM, the koff was 0.00031 s⁻¹ and the kon turned out to be 300000 M⁻¹ s⁻¹.
In the same order, the values of B16 are 0.82 nM, 0.00023 s⁻¹ and 280000 M⁻¹ s⁻¹.
Turning to B17, the affinity, expressed as Kd, was 0.77 nM; the koff is 0.00024 s⁻¹; the kon came out at 310000 M⁻¹ s⁻¹.
In the same order, the values of B18 are 0.93 nM, 0.00027 s⁻¹ and 290000 M⁻¹ s⁻¹.
